In US20240398896A1, “INFLAMMASOME INHIBITION” (National University of Singapore, priority 2021, published 2024):
Substitutions are numbered along the chain they refer to.

T1: NLRP3 inflammasome (Mus musculus, UniProt Q9EPB4)
T1 sequence (Q9EPB4 1-193): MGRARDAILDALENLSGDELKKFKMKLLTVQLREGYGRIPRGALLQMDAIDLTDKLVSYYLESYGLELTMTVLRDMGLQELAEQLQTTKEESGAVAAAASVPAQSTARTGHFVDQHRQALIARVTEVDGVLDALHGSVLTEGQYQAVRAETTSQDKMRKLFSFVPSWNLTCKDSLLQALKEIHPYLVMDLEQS

B1: human ASC2: wildtype human ASC2, 89 amino acids, SEQ ID NO:7 (protein)
chain: MGTKREAILKVLENLTPEELKKFKMKLGTVPLREGFERIPRGALGQLDIVDLTDKLVASYYEDYAAELVVAVLRDMRMLEEAARLQRAA
B2: hupa4 ASC2: human ASC2 with 4 key sites substituted simultaneously with the ones in bat ASC2, SEQ ID NO:6 (protein)
chain: B1 chain with K10E, E37R, Y61C, R77G

Tests used:
[1] = rheumatoid arthritis; cited from earlier work
[2] = system: SARS-COV-2 immune complex-induced inflammasome activation; assay: SARS-COV-2 immune complex-induced inflammasome activation in human monocytes; type: cell-based; details: 50 μM MCC950, 18 h
NLRP3 inflammasome [3] = molecular target: T2, NLRP3 inflammasome (Homo sapiens, UniProt Q9ULZ3); assay: ASC speck and filament formation in HEK293T cells reconstituted with human NLRP3-mCitrine and human ASC-mPlum (ImageStream, confocal); type: cell-based; design: expressed in transfected cells; host or cells: HEK293T; details: HEK293T; for ASC2 filament formation / distribution: ImageStream and confocal
T2 sequence (Q9ULZ3 whole entry): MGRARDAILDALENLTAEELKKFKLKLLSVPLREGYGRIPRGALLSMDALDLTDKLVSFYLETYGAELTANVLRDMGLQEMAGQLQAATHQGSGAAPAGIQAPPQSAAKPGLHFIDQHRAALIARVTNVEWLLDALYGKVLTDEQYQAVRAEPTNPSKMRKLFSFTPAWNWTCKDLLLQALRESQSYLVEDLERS
Protocol: (§1) Inflammasome activation assays.
ImageStream imaging flow cytometry. […] Nuclei were stained with DAPI.
Confocal imaging. […] At 48 h post-transfection, cells were fixed with 10% formalin for 15 min at room temperature. DAPI (1:2000 dilution) was used for nuclear staining. All samples were then mounted and examined using the Leica TCS SP8 confocal microscope.

NLRP3 inflammasome [4] = molecular target: T1, NLRP3 inflammasome; assay: Inflammasome activation in LPS-primed mouse immortalized macrophages (iMACs) stably expressing ASC2, stimulated with nigericin; type: cell-based; design: endogenous in cells; host or cells: BMDMs of C57BL/6 wild-type and bat ASC2/rtTA mice; details: iMACs stably expressing equal ASC2-LSSmOrange, LPS 3 h, FIG. 11J, 11K
From the text: (§2) Generation of THP-1 and IMACs stable cells. […] Single cell clones were generated for THP-1 cells stably expressing ASC2-LSSmOrange.
as §1

NLRP3 inflammasome [5] = molecular target: T2, NLRP3 inflammasome; assay: Inflammasome activation in LPS-primed THP-1 macrophages stably expressing ASC2, stimulated with nigericin; type: cell-based; design: endogenous in cells; host or cells: THP-1 macrophages (PMA-differentiated, LPS-primed); details: THP-1 macrophages stably expressing equal ASC2-mCitrine, LPS 3 h, nigericin 2 h; FIG. 11L, 11M
From the text: as §2, §1
ImageStream imaging flow cytometry.

human ASC = molecular target: T3, human ASC (Homo sapiens, UniProt Q9ULZ3); assay: Co-immunoprecipitation of ASC2-His with human ASC-Flag from HEK293T cells; type: binding; details: 0.25 μg bat or hupa4 ASC2 vs 3 μg human ASC2 transfected, FIG. 26A
T3 construct: expressed in transfected cells; host or cells: HEK293T
T3 sequence (Q9ULZ3 whole entry): as above
Protocol: (§3) Co-immunoprecipitation. HEK293T cells were transfected in 6-well plate with plasmids encoding His-tagged empty vector (His alone), bat ASC2, human ASC2, and Hupa4 ASC2 along with Flag-tagged human or bat ASC. 3 μg human ASC2, in contrast to 0.25 μg control, bat or hupa4 ASC2, were transfected to normalize the expression. At 48 h post-transfection, cells were lysed in IP lysis buffer (Pierce) according to manufacturer's protocol and centrifuged at 500 g for 10 minutes at 4° C. The supernatants were subjected to immunoprecipitation by incubation for 16 hours at 4° C. with anti-Flag (Sigma) incubated magnetic beads, followed by washing three times with TBS containing 0.05% Tween 20 and once with purified water. Bound proteins were separated by 15% SDS-PAGE, followed by immunoblotting analysis with the indicated antibodies.

bat ASC = assay: Co-immunoprecipitation of ASC2-His with bat ASC-Flag from HEK293T cells; type: binding; details: 0.25 μg bat or hupa4 ASC2 vs 3 μg human ASC2 transfected, FIG. 26B
Protocol: as §3

| Molecule | Reason for discontinuation after phase II clinical trials [1] | Cell death (LDH release) ([2]; 100 ng/ml Pam3CSK4, immune complexes, FIG. 10M) | IL-1β secretion ([2]; Pam3CSK4 priming, immune complexes, FIG. 10I) | ASC2 filament formation / distribution (NLRP3 inflammasome [3]) | Co-localization with human ASC (NLRP3 inflammasome [3]; imaging, FIG. 3A) | Inflammasome inhibition (LDH release and IL-1β secretion) (NLRP3 inflammasome [4]) | Inflammasome inhibition (LDH release and IL-1β secretion) (NLRP3 inflammasome [5]) | Interaction with human ASC (co-IP) (human ASC) | Interaction with bat ASC (co-IP) (bat ASC) | ASC speck formation (human NLRP3 inflammasome activation) (NLRP3 inflammasome [3]; human NLRP3-mCitrine, human ASC-mPlum, 50 ng ASC2-LSSmOrange, 48 h post-transfection) |
| --- | --- | --- | --- | --- | --- | --- | --- | --- | --- | --- |
| CC(C)(O)c1coc(S(=O)(=O)NC(=O)Nc2c3c(cc4c2CCC4)CCC3)c1 [MCC950] | liver toxicity | abolished | abolished | – | – | – | – | – | – | – |
| B1 | – | – | – | diffusely distributed | not between human ASC2 and human ASC | – | – | – | – | – |
| B2 | – | – | – | form filaments | – | gain-of-function | gain-of-function | interact strongly with human ASC | interact with bat ASC more strongly than human ASC2 | gained the ability to inhibit NLRP3 inflammasome |
